This is an account of results in patent publication US20180282410A1 (Hoffmann-La Roche, published 2018).

What all share (assay): cell-based or functional assay
Assay [1] concerns the target T1, full-length human Robo 4 (on cells) (human, UniProt Q8WZ75 28-1007).
T1 sequence: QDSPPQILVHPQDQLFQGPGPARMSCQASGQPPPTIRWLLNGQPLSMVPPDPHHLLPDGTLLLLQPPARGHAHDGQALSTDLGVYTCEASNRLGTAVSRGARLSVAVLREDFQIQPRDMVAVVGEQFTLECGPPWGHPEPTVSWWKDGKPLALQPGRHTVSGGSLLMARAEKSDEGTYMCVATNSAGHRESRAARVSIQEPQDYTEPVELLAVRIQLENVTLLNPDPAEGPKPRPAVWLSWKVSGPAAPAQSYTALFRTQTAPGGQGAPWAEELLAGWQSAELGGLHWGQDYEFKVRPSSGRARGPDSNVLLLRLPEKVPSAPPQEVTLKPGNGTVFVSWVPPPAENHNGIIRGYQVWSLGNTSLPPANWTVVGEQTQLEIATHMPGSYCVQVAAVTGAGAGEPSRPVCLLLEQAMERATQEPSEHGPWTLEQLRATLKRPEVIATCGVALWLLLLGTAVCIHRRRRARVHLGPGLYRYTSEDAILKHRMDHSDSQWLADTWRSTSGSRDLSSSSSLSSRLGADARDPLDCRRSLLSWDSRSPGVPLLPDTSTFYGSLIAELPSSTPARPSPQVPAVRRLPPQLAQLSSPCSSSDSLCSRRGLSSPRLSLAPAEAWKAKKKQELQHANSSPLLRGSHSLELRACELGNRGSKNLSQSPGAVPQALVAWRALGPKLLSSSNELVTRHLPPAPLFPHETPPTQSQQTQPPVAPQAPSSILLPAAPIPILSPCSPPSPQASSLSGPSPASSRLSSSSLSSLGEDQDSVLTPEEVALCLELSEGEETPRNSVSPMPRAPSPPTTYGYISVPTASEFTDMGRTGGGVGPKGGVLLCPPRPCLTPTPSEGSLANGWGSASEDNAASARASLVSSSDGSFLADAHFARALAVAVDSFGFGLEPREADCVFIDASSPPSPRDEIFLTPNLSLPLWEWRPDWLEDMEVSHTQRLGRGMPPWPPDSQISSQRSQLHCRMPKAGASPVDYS

For assay [2], the target named is T1, full-length human Robo 4 (on cells). This is another data set of the same source.
Assay [3] concerns the target T2, mouse Robo 4 on MS-1 mouse endothelial cells (mouse, UniProt Q8C310 28-1012).
T2 sequence: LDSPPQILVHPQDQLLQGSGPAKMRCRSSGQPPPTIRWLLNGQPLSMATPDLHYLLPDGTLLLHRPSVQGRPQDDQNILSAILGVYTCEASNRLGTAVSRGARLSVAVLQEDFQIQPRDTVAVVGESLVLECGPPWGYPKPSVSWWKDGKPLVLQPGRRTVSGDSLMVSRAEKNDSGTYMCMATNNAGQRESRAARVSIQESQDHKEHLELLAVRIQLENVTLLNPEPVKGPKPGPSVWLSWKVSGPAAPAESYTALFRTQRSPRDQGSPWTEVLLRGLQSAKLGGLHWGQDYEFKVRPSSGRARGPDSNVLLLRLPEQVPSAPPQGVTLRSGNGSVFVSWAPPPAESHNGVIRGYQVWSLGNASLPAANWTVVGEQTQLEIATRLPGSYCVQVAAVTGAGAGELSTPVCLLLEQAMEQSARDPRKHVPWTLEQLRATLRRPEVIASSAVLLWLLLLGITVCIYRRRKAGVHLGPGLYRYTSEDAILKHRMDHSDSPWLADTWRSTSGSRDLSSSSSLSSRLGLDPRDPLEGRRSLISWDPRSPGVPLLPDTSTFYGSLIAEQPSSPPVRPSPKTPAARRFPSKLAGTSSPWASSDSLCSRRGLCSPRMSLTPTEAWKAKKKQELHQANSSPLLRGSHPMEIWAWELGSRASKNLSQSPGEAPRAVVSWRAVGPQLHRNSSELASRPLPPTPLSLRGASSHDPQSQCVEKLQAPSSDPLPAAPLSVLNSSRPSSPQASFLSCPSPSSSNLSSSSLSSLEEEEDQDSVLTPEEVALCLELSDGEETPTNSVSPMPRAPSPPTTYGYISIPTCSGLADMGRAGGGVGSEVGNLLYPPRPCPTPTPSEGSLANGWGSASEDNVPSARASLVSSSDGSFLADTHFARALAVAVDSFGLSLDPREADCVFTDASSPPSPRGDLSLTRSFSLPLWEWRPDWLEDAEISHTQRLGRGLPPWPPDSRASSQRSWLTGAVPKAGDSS

Assay [4] concerns the target T1, full-length human Robo 4 (on cells). This is another data set of the same source.
For assay [5], the target named is T2, mouse Robo 4 on MS-1 mouse endothelial …. This is another data set of the same source.

Substitutions are numbered along the chain they refer to. Where two headings read alike, the source gives them in different places.

B1: Molecule F, 2+1 CrossFab-IgG (VH/VL exchange in CD3 binder, CD3 binder V9, Robo 4 binders 01F05) (bispecific antibody)
chain 1: not shown
chain 2: QVQLKQSGAELVKPGASVKISCKTSVYTFTYGYMHWVEQKPGQGLEWIGRIDPDSGNSMYNQKFQGRATLTRDKSSSTVYMELRSLTSEDSAVYYCARSMRYSGYRDYALDLWGQGTQVTVSSASTKGPSVFPLAPSSKSTSGGTAALGCLVKDYFPEPVTVSWNSGALTSGVHTFPAVLQSSGLYSLSSVVTVPSSSLGTQTYICNVNHKPSNTKVDKKVEPKSCDKTHTCPPCPAPEAAGGPSVFLFPPKPKDTLMISRTPEVTCVVVDVSHEDPEVKFNWYVDGVEVHNAKTKPREEQYNSTYRVVSVLTVLHQDWLNGKEYKCKVSNKALGAPIEKTISKAKGQPREPQVCTLPPSRDELTKNQVSLSCAVKGFYPSDIAVEWESNGQPENNYKTTPPVLDSDGSFFLVSKLTVDKSRWQQGNVFSCSVMHEALHNHYTQKSLSLSPGK
chain 3: QLVLTQSPSASASLGASVKLTCTLSSQHSSYGITWLQQHPDKAPKYVMYLKSDGSHTKGADIPDRFSGSSSGVHRYLSISNVQPEDEAIYFCVTYDSTHVFGSGTQLTVLGQPKAAPSVTLFPPSSEELQANKATLVCLISDFYPGAVTVAWKADSSPVKAGVETTTPSKQSNNKYAASSYLSLTPEQWKSHRSYSCQVTHEGSTVEKTVAPTECS
chain 4: EVQLVESGGGLVQPGGSLRLSCAASGYSFTGYTMNWVRQAPGKGLEWVALINPYKGVSTYNQKFKDRFTISVDKSKNTAYLQMNSLRAEDTAVYYCARSGYYGDSDWYFDVWGQGTLVTVSSASVAAPSVFIFPPSDEQLKSGTASVVCLLNNFYPREAKVQWKVDNALQSGNSQESVTEQDSKDSTYSLSSTLTLSKADYEKHKVYACEVTHQGLSSPVTKSFNRGEC
With B1, in assay [1], the “EC50 of T-cell mediated killing of HUVECs (LDH release, human PBMCs, E:T 10:1), 24 h” value (from here on “EC50 of T-cell mediated killing of HUVECs … 24 h”) was 0.065 nM and the “EC50 of T-cell mediated killing of HUVECs (LDH release, human PBMCs, E:T 10:1), 48 h” value (“EC50 of T-cell mediated killing of HUVECs … 48 h” for short) was determined as 0.322 nM. In assay [2], the “EC50 of T-cell mediated killing of HUVECs … 24 h” value was 0.104 nM and the “EC50 of T-cell mediated killing of HUVECs … 48 h” value was 0.154 nM. For the same molecule, in assay [3], the “EC50 of T-cell mediated killing of MS-1 cells (LDH release, human PBMCs, E:T 10:1), 24 h” value was roughly 0.164 nM and the “EC50 of T-cell mediated killing of MS-1 cells (LDH release, human PBMCs, E:T 10:1), 48 h” value was found to be 0.196 nM.

B2: Molecule I, 1+1 Fab-CrossFab (VH/VL exchange in CD3 binder, CD3 binder V9, Robo 4 binder 01F09) (bispecific antibody)
chain 1: QIQLQESGPGLVKPSQSLSLTCSVTGYSISSGSLWTWIRQFPGNNLEWMGYISYAGGIDYNPSLTSRISITRDTSRNQFFLQLESVTTQDTATYYCATPGGYPFHFDYWGQGTMVTVSSASTKGPSVFPLAPSSKSTSGGTAALGCLVKDYFPEPVTVSWNSGALTSGVHTFPAVLQSSGLYSLSSVVTVPSSSLGTQTYICNVNHKPSNTKVDKKVEPKSCDGGGGSGGGGSDIQMTQSPSSLSASVGDRVTITCRASQDIRNYLNWYQQKPGKAPKLLIYYTSRLESGVPSRFSGSGSGTDYTLTISSLQPEDFATYYCQQGNTLPWTFGQGTKVEIKSSASTKGPSVFPLAPSSKSTSGGTAALGCLVKDYFPEPVTVSWNSGALTSGVHTFPAVLQSSGLYSLSSVVTVPSSSLGTQTYICNVNHKPSNTKVDKKVEPKSC
chain 2: QPVLTQSPSASASLGASVKLTCTLNSQFSTYNIGWYQQHRDKPPKYVMFVKGDGGHSKADGIPDRFSGSSSGADRYLTISNIQAEDEAIYFCGADYNNAGQYGCVFGSGTHFTVLGQPKAAPSVTLFPPSSEELQANKATLVCLISDFYPGAVTVAWKADSSPVKAGVETTTPSKQSNNKYAASSYLSLTPEQWKSHRSYSCQVTHEGSTVEKTVAPTECS
chain 3: B1 chain 4
B2: the “EC50 of T-cell mediated killing of HUVECs (LDH release, human pan T cells, E:T 5:1, 22 h)” value in assay [4] came out at 0.198 nM. In addition, the “EC50 of T-cell mediated killing of MS-1 cells (LDH release, human pan T cells, E:T 5:1, 17 h)” value in assay [5] was found to be 4.56 nM.

B3: Molecule M, 2+1 CrossFab-IgG, inverted, with charge modifications (VH/VL exchange in CD3 binder, charge modification in Robo 4 binders, CD3 binder of SEQ ID … (bispecific antibody)
chain 1: QVQLKQSGAELVKPGASVKISCKTSVYTFTYGYMHWVEQKPGQGLEWIGRIDPDSGNSMYNQKFQGRATLTRDKSSSTVYMELRSLTSEDSAVYYCARSMRYSGYRDYALDLWGQGTQVTVSSASTKGPSVFPLAPSSKSTSGGTAALGCLVEDYFPEPVTVSWNSGALTSGVHTFPAVLQSSGLYSLSSVVTVPSSSLGTQTYICNVNHKPSNTKVDEKVEPKSCDKTHTCPPCPAPEAAGGPSVFLFPPKPKDTLMISRTPEVTCVVVDVSHEDPEVKFNWYVDGVEVHNAKTKPREEQYNSTYRVVSVLTVLHQDWLNGKEYKCKVSNKALGAPIEKTISKAKGQPREPQVCTLPPSRDELTKNQVSLSCAVKGFYPSDIAVEWESNGQPENNYKTTPPVLDSDGSFFLVSKLTVDKSRWQQGNVFSCSVMHEALHNHYTQKSLSLSP
chain 2: not shown
chain 3: EVQLLESGGGLVQPGGSLRLSCAASGFTFSTYAMNWVRQAPGKGLEWVSRIRSKYNNYATYYADSVKGRFTISRDDSKNTLYLQMNSLRAEDTAVYYCVRHGNFGNSYVSWFAYWGQGTLVTVSSASVAAPSVFIFPPSDEQLKSGTASVVCLLNNFYPREAKVQWKVDNALQSGNSQESVTEQDSKDSTYSLSSTLTLSKADYEKHKVYACEVTHQGLSSPVTKSFNRGEC
chain 4: B1 chain 3 with E127K, E128K
For B3, in assay [2], the “EC50 of T-cell mediated killing of HUVECs … 24 h” value came out at 0.173 nM and the “EC50 of T-cell mediated killing of HUVECs … 48 h” value worked out at 0.125 nM. In addition, in assay [3], the “EC50 of T-cell mediated killing of MS-1 cells (LDH release, human PBMCs, E:T 10:1), 24 h” value turned out to be 0.275 nM and the “EC50 of T-cell mediated killing of MS-1 cells (LDH release, human PBMCs, E:T 10:1), 48 h” value was determined as 0.119 nM.

B4: Molecule G, 1+1 Fab-CrossFab (VH/VL exchange in CD3 binder, CD3 binder V9, Robo 4 binder 01E06) (bispecific antibody)
chain 1: EVQLVESGGGLSQPGNSLKLSCEASGFTFRNYDMSWVRQAPGKGLEWVAYISSGGGPIYYVDAVKGRFTISRDNAKNLLFLQMNNLRSEDTAVYYCARDLADIGVFDYWGQGTMVTVSSASTKGPSVFPLAPSSKSTSGGTAALGCLVKDYFPEPVTVSWNSGALTSGVHTFPAVLQSSGLYSLSSVVTVPSSSLGTQTYICNVNHKPSNTKVDKKVEPKSCDGGGGSGGGGSDIQMTQSPSSLSASVGDRVTITCRASQDIRNYLNWYQQKPGKAPKLLIYYTSRLESGVPSRFSGSGSGTDYTLTISSLQPEDFATYYCQQGNTLPWTFGQGTKVEIKSSASTKGPSVFPLAPSSKSTSGGTAALGCLVKDYFPEPVTVSWNSGALTSGVHTFPAVLQSSGLYSLSSVVTVPSSSLGTQTYICNVNHKPSNTKVDKKVEPKSC
chain 2: DFKMTQSPDILSPSLGESVTITCQSSQNIYSNLAWYQQKPGEHPKLLIYTASILADGIPSRFTGSGSGTQFSLKISSLQPDDVANYYCQQYVYYRTFGPGTKLEIKRTVAAPSVFIFPPSDEQLKSGTASVVCLLNNFYPREAKVQWKVDNALQSGNSQESVTEQDSKDSTYSLSSTLTLSKADYEKHKVYACEVTHQGLSSPVTKSFNRGEC
chain 3: B1 chain 4
On to B4, for which the “EC50 of T-cell mediated killing of HUVECs (LDH release, human pan T cells, E:T 5:1, 22 h)” value in assay [4] worked out at 0.036 nM. Also, in assay [5], the “EC50 of T-cell mediated killing of MS-1 cells (LDH release, human pan T cells, E:T 5:1, 17 h)” value was found to be 0.352 nM.

B5: Molecule C, 1+1 CrossFab-IgG (VH/VL exchange in CD3 binder, CD3 binder V9, Robo 4 binder 01E06) (bispecific antibody)
chain 1: not shown
chain 2: B4 chain 2
chain 3: B1 chain 4
chain 4: DKTHTCPPCPAPEAAGGPSVFLFPPKPKDTLMISRTPEVTCVVVDVSHEDPEVKFNWYVDGVEVHNAKTKPREEQYNSTYRVVSVLTVLHQDWLNGKEYKCKVSNKALGAPIEKTISKAKGQPREPQVCTLPPSRDELTKNQVSLSCAVKGFYPSDIAVEWESNGQPENNYKTTPPVLDSDGSFFLVSKLTVDKSRWQQGNVFSCSVMHEALHNHYTQKSLSLSPGK
With B5, the “EC50 of T-cell mediated killing of HUVECs (LDH release, human pan T cells, E:T 5:1, 22 h)” value in assay [4] came to 0.046 nM. Further, the “EC50 of T-cell mediated killing of MS-1 cells (LDH release, human pan T cells, E:T 5:1, 17 h)” value in assay [5] came out at 0.472 nM.
